Laboratory results as given in the nanobody polyreactivity screen of Harvey et al. (2022).

Experiment: yeast display, Sf9 membrane polyspecificity reagent, FACS + sequencing; frameworks hold sequencing errors
Method in brief: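 Synthetic nanobody libraries on Saccharomyces cerevisiae BJ5465 were galactose-induced for 36–48 hours, stained 1 hour at 4 °C with 10% biotinylated, detergent-solubilized Sf9 membrane reagent and enriched on streptavidin microbeads. FACS then separated cells into low and high (top ~1%) gates by anti-HA (expression) and streptavidin (reagent binding) fluorescence. Genes were colony-PCR amplified, MiSeq 2 × 250 sequenced and CDR-length filtered. A clone's polyreactivity label is that of its gate of origin.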

Row | Sequence | polyreactivity (PSR sort gate)
1 | QVQLVESGGGLVQAGGSLRLSCAASGSTFRHYAMGLYRQAPGKERELVAAISSTGGSTYYADSVKGRFTISRDNAKNTVYLQMNSLKPEDTAVYYCAASPYGFRRNYYWGQGTQVTVSS | high polyreactivity
2 | QVQLVESGGGLVQAGGSLRLSCAASGSTFRHYAMGWYRQAPGKERELVAAITRRTVSTYYADSVKGRFTISRDNAKNSVYLQMNSLKPEHTAVYYCAADYWYSGYDYWGQGTQVTVSS | low polyreactivity
3 | QVQLVESGGGLVQAGGSLRLSCAASGSTFRINAMGWYRQAPGKERELVAAISRSGSITYYADSVKGRFTISRDNAKNTVYLQMNSLKPEDTAVYYCAAKSRKGGDYWGQGTQVTVSS | high polyreactivity
4 | QVQLVESGGGLVQAGGSLRLSCAASGSTFRIYAMGWYRQAPGKERELVARISWNGGRTYYADSVKGRFTISRDNAKNTVYLQMNSLKTEDTAVYYCNALVPPGYDYWGQGTQVTVSS | high polyreactivity
5 | QVQLVESGGGLVQAGGSLRLSCAASGSTFRIYAMGWYRQAPGKERELVASISSGGRTYYADSVKGRFTISRDNAKNTVYLQMNSLKPEDTAVYYCNARHYYIWWRSPTRTAMNYWGQGTQVTVSS | high polyreactivity
6 | QVQLVESGGGLVQAGGSLRLSCAASGSTFRLYAMGGSRQAPGKERELVAAIRSGGNTNNADSVKGRFTISRDNAKHTVYLQMNSLKPEDTAVYYCNGFSGQLPVPNYDYWGQGTQVTVSS | high polyreactivity
7 | QVQLVESGGGLVQAGGSLRLSCAASGSTFRLYAMGWYRQAPGEERELVASITFSDSITSYADSVKGRFTISRDNAKNTVYLQMNSLKPEDTAVYYCDKDTSYENVVYTFDYDYWGQGTQVTVSS | low polyreactivity
8 | QVQLVESGGGLVQAGGSLRLSCAASGSTFRLYAMGWYRQAPGKEREFVAAISFRGGSTYYADSVKGRFTISRDNAKNTVYLQMNSLKPEDTAVYYCAADYWTSADPRNIIKYDYWGQGTQVTVSS | high polyreactivity
9 | QVQLVESGGGLVQAGGSLRLSCAASGSTFRLYAMGWYRQAPGKERELVAAISYSGGSTYYADSVKGRFTISRDNAKNTVYLQMNSLKPEDTAVYYCNAVRRHGGYYDYGYWGQGTQVTVSS | high polyreactivity
10 | QVQLVESGGGLVQAGGSLRLSCAASGSTFRLYAMGWYRQAPGKERELVAVISRSGGRTYADSVKGRFTISRDNAKNSVYFQMNSLKPEDTAVYYCAKARHKSATYTHDSWGQGTQVTVSS | high polyreactivity
11 | QVQLVESGGGLVQAGGSLRLSCAASGSTFRLYTMGWYRQAPGKERELVASIRGSGGRTYYADSVKGRFTISRDNAKNTVYLQMNSLKPEDTAVYYCNAESYSTWSFGHRYEYDYWGQGTQVTVSS | low polyreactivity
12 | QVQLVESGGGLVQAGGSLRLSCAASGSTFRPNAMGWYRQAPGKERELVATIRTSGGTTYYADSVKGRFTISRDNAKNTVYLQMNSLKPEDTAVYYCAATKFGSSYDYWGQGTQVTVSS | low polyreactivity
13 | QVQLVESGGGLVQAGGSLRLSCAASGSTFRPYAMGWYRQAPGKERELVAAITSGGNTYYADSVKGRFTISRDNAKNTVYLQMNSLKPEDTAVYYCAARPYYYIVRGTEYDYWGQGTQVTVSS | high polyreactivity
14 | QVQLVESGGGLVQAGGSLRLSCAASGSTFRPYAMGWYRQAPGKERELVARITGSGDSTYYADSVKGRFTISRDNAKNTVYLQMNSLKPEDTAVYYCAREFDYSLSGFDYWGQGTQVTVSS | low polyreactivity
15 | QVQLVESGGGLVQAGGSLRLSCAASGSTFRRNAMGWYRQAPGKERELVAAITSGGSTYYADSVKGRFTISRDNAKNTVYLQMNSLKPEDTAVYYCNRLYRWKKPLDYDYWGQGTQVTVSS | high polyreactivity
16 | QVQLVESGGGLVQAGGSLRLSCAASGSTFRRNAMGWYRQAPGKERELVAAITWRGTSTYYADSVKGRFTISRDNAKNTVYLQMNSLKPEDTAVYYCAADRFVRYWGQGTQVTVSS | high polyreactivity
17 | QVQLVESGGGLVQAGGSLRLSCAASGSTFRRYAMGWYRPAPGKERELVAAISTRGGSTYYADSVKGRFTISRDNAKNTVYLQMNSLKPEDTAVYYCAADEPKYTSSSSRRYGYWGQGTQVTVSS | high polyreactivity
18 | QVQLVESGGGLVQAGGSLRLSCAASGSTFRRYAMGWYRQAPGKERELGAAISRSGGTTYYADSVKGRFTISRDNAKNTVYLQMNSLKPEDTAVYYCNARYPVVRYDYWGQGTQVTVSS | high polyreactivity
19 | QVQLVESGGGLVQAGGSLRLSCAASGSTFRRYAMGWYRQAPGKERELVATITKRGGSTYYADSVKGRFTISRDNAKNTVYLQMNSLKPEDTAVYYCAADSAYWTYEYWGQGTQVTVSS | high polyreactivity
20 | QVQLVESGGGLVQAGGSLRLSCAASGSTFRRYAMGWYRQAPWKERELVAAITRRGITYYADSVKGRFTISRDNAKNTVYFQMNSLKPEDTAVYYCAATTFGPYALYPRYYYWGQGTQVTVSS | high polyreactivity
21 | QVQLVESGGGLVQAGGSLRLSCAASGSTFRRYGMGWYRQAPGKEREWVAAISKGGTRTYYADSVKGRFTISRDNAKNTVYLQMNSLKPEDTAVYYCAAAGAPSSTPQKEYYWGQGTQVTVSS | high polyreactivity
22 | QVQLVESGGGLVQAGGSLRLSCAASGSTFRSNAMGWYRPAPGKERELVAAISSRVGTTYYADSVKGRFTISRDNAKNTVYLQMNSLKPEDTAVYYCAAQGWRYYRTVVPMDYWGQGTQVTVSS | low polyreactivity

Row | Sequence | polyreactivity (PSR sort gate)
23 | QVQLVESGGGLVQAGGSLRLSCAASGSTFRTNTMGWYRQAPGKERELVAAITGTGGSTYYADSVKGRFTISRDNAKNTVYLQMNSLKPEDTAVYYCAKRYYRWRRDYSWGQGTQVTVSS | high polyreactivity
24 | QVQLVESGGGLVQAGGSLRLSCAASGSTFRTYAMGWYRQAPGKERELVAAISWSGGITYDADSVKGRFTISRDNAKNTVYLQMNSLKPEDTAVYFCDARLASWPLTYDFQWYEYWGQGTQVTVSS | low polyreactivity
25 | QVQLVESGGGLVQAGGSLRLSCAASGSTFRVNAMGWYRQAPGKEREFVAGISFGGGSTYYADSVKGRFTISRDNAKNTVYLQMNSLKPEDTAVYYCNARGKGSGAVRYNYWGQGTQVTVSS | high polyreactivity
26 | QVQLVESGGGLVQAGGSLRLSCAASGSTFRVNVMGLYRQAPGKERELVAAIDSGGSTYYADSVKGRFTISRDNAKNTVYLQMNSLKPEYTAVYYCNSRVDSPSPYDYWGQGTQVTVSS | low polyreactivity
27 | QVQLVESGGGLVQAGGSLRLSCAASGSTFRVYAMGCYRQAPGKERELVAAISGSGGSTYYADSVKGRFTISRDNAKNTVYLQMNSLKPEDTAVYYCAARSWYTEYYWGQGTQVTVSS | high polyreactivity
28 | QVQLVESGGGLVQAGGSLRLSCAASGSTFRVYAMGWYRQAPGKERELVAAITRSGGRTHYADSVKGRFTISRDNAKNTVYLQMNSLKPEDTAVYYCAARFYYTKPEDYYWGQGTQVTVSS | high polyreactivity
29 | QVQLVESGGGLVQAGGSLRLSCAASGSTFRWNAMGWYRQAPGKERELVAAISNGGSTNYADSVKGRFTISRDNAKNTVYLQMNSLKPEDTAVYYCATDGWYGQHYYDYDFDYYYWGQGTQVTVSS | low polyreactivity
30 | QVQLVESGGGLVQAGGSLRLSCAASGSTFRWNAMGWYRQAPGKERELVATITWGGGSTYYADSVKGRFTISRDNAKNTVYLQMNSLKPEDTAVYYCARRQRARYSYYQYNYWGQGTQVTVSS | high polyreactivity
31 | QVQLVESGGGLVQAGGSLRLSCAASGSTFRWYAMGWYRQAPGKERELVASITWSGGGTYYADSVKGRFTISRDNAKNTVYFQMNSLKPEDTAVYYCNRRTWRYETRGDDYWGQGTQVTVSS | high polyreactivity
32 | QVQLVESGGGLVQAGGSLRLSCAASGSTFRYNPMGWYRQAPGNERELVAAISSGGYTNYADSVKGRFTISRDNAKNTVYLQMNSLKPEDTAVYYCAARYYPWKVNRFSYWYDYWGQGTLVTVSS | high polyreactivity
33 | QVQLVESGGGLVQAGGSLRLSCAASGSTFRYNTMGWYRQAPGKERELVAAINISSSSTYYADSVKGRFTISRDNAKNTVYLQMNSLKPEDTAVYYCAKRDFVPIATDENDDYWGQGTQVTVSS | low polyreactivity
34 | QVQLVESGGGLVQAGGSLRLSCAASGSTFRYNTMGWYRQAPGKERELVAGITSGGGRTYADSVKGRFTISRDNAKNTVYLQMNSLKPEDTAVYYCAAGKYYFLSRYDSWGQGTQVTVSS | low polyreactivity
35 | QVQLVESGGGLVQAGGSLRLSCAASGSTFRYNTMGWYRQAPGTERELVATISWRGGRTYYADSVKGRFTISRDNAKNTVYLQMNSLKPEDTAVYYCASIATVPRDYGGNYWGQGTQVTVSS | low polyreactivity
36 | QVQLVESGGGLVQAGGSLRLSCAASGSTFRYNVMGWYRQAPGKERDLVAAITRRGSRTYYADSVKGRFTISRDNAKNTVYLQMNSLKPEDTAVYYCNKYSLSVPANDDYWGQGSQVTVSS | high polyreactivity
37 | QVQLVESGGGLVQAGGSLRLSCAASGSTFRYYALGWYRQAPGKERELVASISIGGGPTYYADSVKGRFTISRDNAKNTVYLQMHIQKPEDTAVYYCAAERTIRAARPVVRTFDYWGHGTQVTVSS | low polyreactivity
38 | QVQLVESGGGLVQAGGSLRLSCAASGSTFRYYAMGGSRQEPGKESELVAVISTSGNTYYADSVKGRFTISRDNAKNSVYLQMNSLKPEDTAVYYCAARGVGGQISQEYDYWGQGTQVTVSS | low polyreactivity
39 | QVQLVESGGGLVQAGGSLRLSCAASGSTFRYYAMGWYRKAPGKERELVAAITSSGGSTYYADSVKGRFTISRDNAKNTVYLQMNSLKPEDTAVYYCAVAVKNWVKLNYWGQGTQVTVSS | high polyreactivity
40 | QVQLVESGGGLVQAGGSLRLSCAASGSTFRYYAMGWYRQAPGKERELVAAISGSGGRTYYADSVKGRFTISRDNAKNTVYLQMNSLKPEDTAVYYCITRGRRTDYDYWGQGNQVTVSS | high polyreactivity
41 | QVQLVESGGGLVQAGGSLRLSCAASGSTFRYYAMGWYRQAPGKERELVAAISGSGGRTYYADSVKGRFTISRDNAKNTVYLQMNSLKPEDTAVYYCNTRGRRTDYDYWGQGTQVTVSS | high polyreactivity
42 | QVQLVESGGGLVQAGGSLRLSCAASGSTFRYYAMGWYRQAPGKERELVAAISSSGGSTYYADSVKGRFTISRDNAKNTVYLQMNSLKPEDTAVYYCAARHYSYRVEYDYWGQGTQVTVSS | high polyreactivity
43 | QVQLVESGGGLVQAGGSLRLSCAASGSTFRYYAMGWYRQAPGKERELVAAITWGGGNTYYADSVKGRFTISRDNAKNTVYLQMNSLKPEDTAVYYCNKVQSHWLDSWGQGTQVTVSS | low polyreactivity
